# Experimental data as given in US20240132603A1 (HARBOUR BIOMED US, published 2024).
# Target: T1, human CCR8 (human, UniProt P51685 1-355)
# T1 construct: whole, on cells; construct used for the overexpressing cell lines is not described; also called hCCR8
# Experiment: FACS, CHO-K1-hCCR8 cells
# Protocol: Cells overexpressing human CCR8 were digested with pancreatin, counted and resuspended to a cell density of 1E6 cells/mL. The cell suspension was added to a 96-well V-bottom plate at 100 μL/well and centrifuged at 300 g for 5 min, and the supernatant was discarded. The anti-CCR8 antibodies provided herein was used as a primary antibody and diluted in a 5-fold gradient with an FACS buffer (DPBS containing 2% FBS) from 200 nM. The diluted primary antibody was added at 100 μL/well to resuspend the cells, and the mixture was incubated at 4° C. for 1 h. The plate was washed twice with DPBS and centrifuged at 300×g for 5 min, and the supernatant was discarded. The secondary antibody diluted in a 1:1000 ratio with an FACS buffer was added at 100 μL/well to suspend the cells, and the mixture was incubated at 4° C. for 40 min. The plate was washed twice with DPBS and centrifuged at 300×g for 5 min, and the supernatant was discarded. DPBS was added at 200 μL/well to suspend the cells, and the mixture was loaded on an FACS machine for analysis.
# T1 sequence (P51685 whole entry): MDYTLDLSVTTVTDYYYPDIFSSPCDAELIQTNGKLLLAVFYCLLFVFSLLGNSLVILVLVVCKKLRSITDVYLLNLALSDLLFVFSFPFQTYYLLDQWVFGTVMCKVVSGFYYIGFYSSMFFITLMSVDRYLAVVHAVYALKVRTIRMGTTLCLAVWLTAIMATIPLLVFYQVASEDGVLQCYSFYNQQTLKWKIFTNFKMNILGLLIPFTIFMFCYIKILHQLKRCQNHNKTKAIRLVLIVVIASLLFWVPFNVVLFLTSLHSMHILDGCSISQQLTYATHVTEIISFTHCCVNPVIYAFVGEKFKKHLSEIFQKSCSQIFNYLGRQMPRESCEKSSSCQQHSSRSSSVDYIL
row,EC50,Binder
1,0.44 nM,"PR005125 (antibody, human IgG1, kappa, fully human, human IgG1 constant region) heavy: not shown light: DIVMTQSPLSLSVTLGQPASISCRSSQSLVFSNGNTYLNWFQQRPGQSPRRLIYKVSKRDSGVPDRFSGSGSGTDFTLKISRVEAEDVGVYYCMQGTHWITFGQGTRLEIKRTVAAPSVFIFPPSDEQLKSGTASVVCLLNNFYPREAKVQWKVDNALQSGNSQESVTEQDSKDSTYSLSSTLTLSKADYEKHKVYACEVTHQGLSSPVTKSFNRGEC"
2,0.37 nM,"PR005128 (antibody, human IgG1, kappa, fully human; same VH/VL as PR005125, other heavy chain entry) heavy: not shown light: DIVMTQSPLSLSVTLGQPASISCRSSQSLVFSNGNTYLNWFQQRPGQSPRRLIYKVSKRDSGVPDRFSGSGSGTDFTLKISRVEAEDVGVYYCMQGTHWITFGQGTRLEIKRTVAAPSVFIFPPSDEQLKSGTASVVCLLNNFYPREAKVQWKVDNALQSGNSQESVTEQDSKDSTYSLSSTLTLSKADYEKHKVYACEVTHQGLSSPVTKSFNRGEC"
3,0.49 nM,"PR005329 (antibody, human IgG1, kappa, called CCR8 chimeric antibody; human IgG1 constant region) heavy: not shown light: DIVMTQAAPSVPVTPGESVSISCRSSKSLLHSNGNTYLYWFLQRPGQSPQLLIYRMSNLASGVPDRFSSSGSGTDFTLRISRVEAEDVGVYYCMQHLEYPFTFGAGTKLEIKRTVAAPSVFIFPPSDEQLKSGTASVVCLLNNFYPREAKVQWKVDNALQSGNSQESVTEQDSKDSTYSLSSTLTLSKADYEKHKVYACEVTHQGLSSPVTKSFNRGEC"
4,0.52 nM,"PR005333 (antibody, human IgG1, kappa, same VH/VL as PR005330, other heavy chain entry) heavy: not shown light: DIVMTQAATSVLVTPGESVSISCRSSKSLLYSNGNTYLYWFLQRPGQSPQLLIYRMSNLASGVPDRFSGSGSGTAFTLRISRVEAEDVGVYYCMQHLEYPFTFGGGTKLELKRTVAAPSVFIFPPSDEQLKSGTASVVCLLNNFYPREAKVQWKVDNALQSGNSQESVTEQDSKDSTYSLSSTLTLSKADYEKHKVYACEVTHQGLSSPVTKSFNRGEC"
5,0.47 nM,"PR005330 (antibody, human IgG1, kappa, called CCR8 chimeric antibody; human IgG1 constant region) heavy: not shown light: DIVMTQAATSVLVTPGESVSISCRSSKSLLYSNGNTYLYWFLQRPGQSPQLLIYRMSNLASGVPDRFSGSGSGTAFTLRISRVEAEDVGVYYCMQHLEYPFTFGGGTKLELKRTVAAPSVFIFPPSDEQLKSGTASVVCLLNNFYPREAKVQWKVDNALQSGNSQESVTEQDSKDSTYSLSSTLTLSKADYEKHKVYACEVTHQGLSSPVTKSFNRGEC"
6,0.63 nM,"PR005332 (antibody, human IgG1, kappa, same VH/VL as PR005329, other heavy chain entry) heavy: not shown light: DIVMTQAAPSVPVTPGESVSISCRSSKSLLHSNGNTYLYWFLQRPGQSPQLLIYRMSNLASGVPDRFSSSGSGTDFTLRISRVEAEDVGVYYCMQHLEYPFTFGAGTKLEIKRTVAAPSVFIFPPSDEQLKSGTASVVCLLNNFYPREAKVQWKVDNALQSGNSQESVTEQDSKDSTYSLSSTLTLSKADYEKHKVYACEVTHQGLSSPVTKSFNRGEC"
7,0.47 nM,"PR005335 (antibody, human IgG1, kappa, V domains shown, fully human, human IgG1 constant region) VH: QVQLVQSGGGLVQPGGSLRLSCTASGFTFSYYWLSWVRQAPGKGLEWVANIKQDGSTTYYVDSVKGRFTISRDNAKNSLYLQMNSLRAEDTAVYYCARNWGFDYWGQGTLVTVSS VL: not shown"
